Measurements published in the RNAGym collection of RNA variant scans (doi:10.1093/nar/gkz1192).

B1: CPEB3 Ribozyme (parent)
chain: UAACAGGGGGCCACAGCAGAAGCGUUCACGUCGCAGCCCCUGUCAGAUUCUGGUGAAUCUGCGAAUUCUGCUGUAUAUCUC

Variants of: B1
Assay: self-cleavage, relative activity (ratio to wild type); higher = more cleavage; in vitro, sequencing
Outline: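 After error-prone PCR and barcoding, CPEB3 ribozyme mutant libraries were transcribed with T7 RNA polymerase at 37°C for 5 hours, then given 15 min with DNase I before an EDTA stop, and they cleaved during both steps. Reverse transcription with template switching preceded Illumina sequencing. Relative activity divides a variant's cleaved/total read fraction by the unmutated ribozyme's. At least 5 reads were required per variant, and three batches were averaged.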
C11A U67C gave a self-cleavage of 0.09.
For C11A U67A, the self-cleavage was 0.17.
C11A A15G showed a self-cleavage of 0.21.
With C11A A15U the self-cleavage was 0.37.
Work on C11A U48C yielded a self-cleavage of 0.32.
In the case of C11A U48G, the self-cleavage is reported as 0.06.
For C11G U41C, the self-cleavage was 0.67.
C11G U41A gave a self-cleavage of 0.25.
C11G U67C showed a self-cleavage of 0.16.
Variant C11G U67G has a self-cleavage of 0.2.
Work on C11G U67A yielded a self-cleavage of 0.27.
Work on C11G G73C yielded a self-cleavage of 0.97.
In the case of C11G C44G, the self-cleavage is reported as 0.32.
With C11G U25A the self-cleavage was 0.1.
For C11G U25C, the self-cleavage was 0.22.
With G10U U80C the self-cleavage was 0.23.
C11G U80A showed a self-cleavage of 0.76.
In the case of C11G U80C, the self-cleavage is reported as 0.55.
For C11G A20U, the self-cleavage was 0.12.
With C11G A20G the self-cleavage was 0.56.
Variant C11A A56G has a self-cleavage of 0.34.
Variant C11A A56U has a self-cleavage of 0.12.
With G10U U74C the self-cleavage was 0.46.
For C11G A64G, the self-cleavage was 0.4.
For C11G A64U, the self-cleavage was 0.16.
With C11G A57G the self-cleavage was 0.43.
With C11G A57U the self-cleavage was 0.39.
C11A A35G showed a self-cleavage of 0.46.
C11A A35U showed a self-cleavage of 0.1.
C11G G70A gave a self-cleavage of 0.26.
With C11G G70U the self-cleavage was 0.23.
Variant C11G U74A has a self-cleavage of 0.96.
In the case of C11G U74G, the self-cleavage is reported as 0.84.
For C11G U74C, the self-cleavage was 0.91.
Work on C11G A75U yielded a self-cleavage of 0.78.
In the case of C11G A75G, the self-cleavage is reported as 0.41.
C11A A57G showed a self-cleavage of 0.33.
Variant C11G C14U has a self-cleavage of 0.93.
C11G C81U gave a self-cleavage of 0.86.
C11G U58A gave a self-cleavage of 0.39.
For C11G A65G, the self-cleavage was 0.21.
With C11G G36U the self-cleavage was 0.09.
For C11G A77G, the self-cleavage was 0.64.
In the case of C11A U26C, the self-cleavage is reported as 0.18.
In the case of C11A U26A, the self-cleavage is reported as 0.3.
Variant C11G U49A has a self-cleavage of 0.6.
C11G U49G showed a self-cleavage of 0.31.
C11A U60C gave a self-cleavage of 0.2.
C11G C17U gave a self-cleavage of 0.19.
C11G C32A showed a self-cleavage of 0.31.
In the case of C11G C32U, the self-cleavage is reported as 0.16.
For C11G A15C, the self-cleavage was 0.62.
C11G A15U showed a self-cleavage of 0.39.
C11G A15G showed a self-cleavage of 0.58.
In the case of C11G U69G, the self-cleavage is reported as 0.14.
Work on C11G U69C yielded a self-cleavage of 0.25.
For C11G U69A, the self-cleavage was 0.11.
Variant C11G U76C has a self-cleavage of 0.61.
For C11G U76A, the self-cleavage was 0.49.
For G10U U67C, the self-cleavage was 0.12.
Variant C11G G46U has a self-cleavage of 0.1.
C11G G19C gave a self-cleavage of 0.48.
Work on C11G yielded a self-cleavage of 0.52.
Work on C11A yielded a self-cleavage of 0.37.
Work on C11U yielded a self-cleavage of 0.44.
C11A C81U showed a self-cleavage of 0.52.
Work on C11A C81G yielded a self-cleavage of 0.39.
Variant C11G U54A has a self-cleavage of 0.28.
C11G U54C showed a self-cleavage of 0.49.
In the case of C11A U41C, the self-cleavage is reported as 0.58.
Work on C11A U41A yielded a self-cleavage of 0.33.
In the case of C11A A45G, the self-cleavage is reported as 0.41.
Variant C11A U31C has a self-cleavage of 0.23.
Variant C11A U31A has a self-cleavage of 0.3.
In the case of C11A U72C, the self-cleavage is reported as 0.52.
For C11A U72A, the self-cleavage was 0.15.
With C11A U25C the self-cleavage was 0.25.
Work on C11A U25A yielded a self-cleavage of 0.45.
C11G U78G gave a self-cleavage of 0.59.
Variant C11G U78A has a self-cleavage of 0.8.
Variant C11G U78C has a self-cleavage of 0.43.
With C11G A21G the self-cleavage was 0.3.
Work on C11G A21C yielded a self-cleavage of 0.08.
C11A A75G gave a self-cleavage of 0.36.
C11A A75U gave a self-cleavage of 0.4.
C11G A18U gave a self-cleavage of 0.39.
C11G A18G showed a self-cleavage of 0.54.
For C11A G33A, the self-cleavage was 0.07.
With C11A U74C the self-cleavage was 0.6.
C11A U58C gave a self-cleavage of 0.43.
Work on C11A A21G yielded a self-cleavage of 0.24.
With C11A U49G the self-cleavage was 0.3.
In the case of C11A U49A, the self-cleavage is reported as 0.11.
C11G U48C gave a self-cleavage of 0.11.
Work on C11G A47G yielded a self-cleavage of 0.61.
C11G U66A showed a self-cleavage of 0.49.
In the case of C11G U66C, the self-cleavage is reported as 0.21.
C11A A13U showed a self-cleavage of 0.34.
Variant C11A A13G has a self-cleavage of 0.09.
C11G A13U gave a self-cleavage of 0.75.
With C11G A13G the self-cleavage was 0.32.
With C11G A56U the self-cleavage was 0.28.
For C11G A56C, the self-cleavage was 0.38.
C11A A28G showed a self-cleavage of 0.1.
Variant C11A A28U has a self-cleavage of 0.67.
Variant C11G U31C has a self-cleavage of 0.22.
In the case of C11G U31A, the self-cleavage is reported as 0.33.
Variant C11G U31G has a self-cleavage of 0.27.
Variant C11A U80C has a self-cleavage of 0.5.
In the case of C11A C17U, the self-cleavage is reported as 0.09.
With C11G U60A the self-cleavage was 0.12.
For C11G U60G, the self-cleavage was 0.21.
Variant C11G U60C has a self-cleavage of 0.29.
C11G U72C gave a self-cleavage of 0.69.
Work on C11G G63U yielded a self-cleavage of 0.66.
In the case of C11G U51A, the self-cleavage is reported as 0.31.
For C11G U51C, the self-cleavage was 0.41.
G10U U72C gave a self-cleavage of 0.22.
C11G C71U showed a self-cleavage of 0.16.
Work on C11G A45G yielded a self-cleavage of 0.35.
Variant C11G A45U has a self-cleavage of 0.23.
For C11G A45C, the self-cleavage was 0.07.
C11A G46C showed a self-cleavage of 0.13.
C11G G42U gave a self-cleavage of 0.37.
For C11A U69C, the self-cleavage was 0.17.
Work on C11G A28G yielded a self-cleavage of 0.24.
Work on G10U U69C yielded a self-cleavage of 0.07.
With G10U U69A the self-cleavage was 0.18.
For C11A C68A, the self-cleavage was 0.14.
Work on C11G C34G yielded a self-cleavage of 0.38.
C11A G24A gave a self-cleavage of 0.09.
Work on C11A A64U yielded a self-cleavage of 0.06.
With C11A A64G the self-cleavage was 0.21.
Work on C11G U43C yielded a self-cleavage of 0.29.
C11G U43A gave a self-cleavage of 0.67.
Variant C11G C39G has a self-cleavage of 0.11.
C11G C39A showed a self-cleavage of 0.38.
Work on C11A C23G yielded a self-cleavage of 0.13.
With C11A C23U the self-cleavage was 0.06.
With C11A U51C the self-cleavage was 0.38.
With C11A A20G the self-cleavage was 0.21.
For C11A A65G, the self-cleavage was 0.26.
With C11A A65U the self-cleavage was 0.18.
With G10U U78C the self-cleavage was 0.39.
For C11A G73A, the self-cleavage was 1.07.
C11A G73C showed a self-cleavage of 0.87.
Work on C11G G55U yielded a self-cleavage of 0.55.
For C11G G55A, the self-cleavage was 0.14.
With C11A C44A the self-cleavage was 0.13.
For C11A U66C, the self-cleavage was 0.12.
Variant C11G A35G has a self-cleavage of 0.56.
For C11G A35C, the self-cleavage was 0.33.
Variant C11G A35U has a self-cleavage of 0.18.
Work on C11A A18U yielded a self-cleavage of 0.43.
In the case of C11A A18C, the self-cleavage is reported as 0.4.
With C11A A18G the self-cleavage was 0.28.
With C11A U54G the self-cleavage was 0.21.
With C11A U54A the self-cleavage was 0.43.
Work on C11A U54C yielded a self-cleavage of 0.17.
C11A U78C gave a self-cleavage of 0.31.
In the case of C11A U78A, the self-cleavage is reported as 0.47.
C11G G30U gave a self-cleavage of 0.09.
In the case of C11A A47U, the self-cleavage is reported as 0.27.
Work on C11A A47G yielded a self-cleavage of 0.51.
C11G U26C showed a self-cleavage of 0.24.
C11G U26A showed a self-cleavage of 0.34.
With C11A C62U the self-cleavage was 0.
